Our source for the Kd values is US20200113997A1 (published 2020).

The target in the test is T1, Man9-V3 glycopeptide (cyclic).
T1 peptide: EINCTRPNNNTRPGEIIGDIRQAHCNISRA
The test is described as follows: BLI.

B1: DH270.2 (antibody, V domains shown)
VH: QVQLVQSGAEMKKPGASVRVSCKASGYTFTDYYIHWVRQAPGQGPEWMGWINPSTGRTNSPQKFQGRVIMTRDTSISTAYMDLNRLTSDDTAMYYCTTGGWIGLYSDTSGYPNFDYWGQGTLVTVSS
VL: QSALTQPASVSGSPGQSITISCTGTNYDVGSYNLVSWYQQHPGKVPKYIIYEVNKRPSGVSNRFSGSKSGNTASLTISGLQAEDEADYYCCSYAGSSIIFFGGGTKLTVI
In turn, B1 had a Kd of 4770 nM.

B2: DH270.3 (antibody, V domains shown)
VH: QVQLVQSGAEMKNPGASVKVSCAASGYTFTDFYIHWVRLAPGQGLEWMGWMNPKTGRTNNAQNFQGRVIMTRDTSIGTAYMELRRLTSDDTAVYYCVTGGWISPYYDSSYYPNFDHWGQGTLVTVSS
VL: QSALTQPASVSGSPGQSITISCTGTSYDVGKFDLVSWYQQHPGKAPKYMIYEVNKWPSGVSHRFSGSKSGNTASLTISGLQAEDEADYYCCSFGGSATVVCGGGTKVTVL
As to B2, the Kd came out at 195 nM. This Kd lies about 24-fold lower than the previous one.

B3: DH270.5 (antibody, V domains shown)
VH: QVQLVQSGAEVKNPGASVKVSCAPSGYTFTDFYIHWVRLAPGQGLEWLGWMNPKTGRTNQGQNFQGRVIMTRDTSIGTAYMELRSLTSDDTAVYYCVTGAWISDYYDSSYYPNFDHWGQGTLVTVSS
VL: LPVLTQPASVSGSPGQSITISCTGTIYDVGKFDLVSWYQHHPGKAPKYLIYEVKKWPSGVSHRFSGSKSGNTASLTISGLQVEDEADYYCCSFGGSAAVVCGGGTKVTVL
B3: the Kd worked out at 281 nM.

B4: DH270.4 (antibody, V domains shown)
VH: EVQLVQSGAEMKNPGASVKVSCAASGYGFTDFYIHWVRLAPGHGLQWMGWMNPKTGRTNNAQDFQGRVILTRDTSIGTAYMELRRLTSDDTAVYYCVTGGWISPYYDSSYYPNFDHWGQGTLITVSS
VL: QSALTQPASVSGSPGQSITISCTGTSYDVAKFDLVSWFQQHPGKAPKYMIYEVNKWPSGVSHRFSGSKSGNTASLTISGLQAEDEADYYCCSFGGSATVVCGGGTKVTVL
In turn, B4 registered a dissociation constant Kd of 346 nM. This Kd and that of the molecule before are within 1.5-fold of each other.
